This series concerns the molecule itself. In words: NMR solution structure (self-association, homodimer). The method, then: For NMR data collection PIP-72Aa (SEQ ID NO: 2) was used at 0.7 mM formulated in 20 mM MES, pH 6.5, 100 mM NaCl, and 5 mM CaCl₂. D₂O and DSS (4,4-dimethyl-4-silapentane-1-sulfonic acid) were added to 10% and 50 μM final concentrations, respectively. This was then loaded into a 4 mm NMR tube (Shigemi). Data collection was at 25° C. on a Bruker 800 MHz spectrometer equipped with a cryo-probe (Monleon, D. et al. 2002, J Struct Funct Genomics 2: 93).
A NOESY peak list containing expected intra-residue, sequential and α-helical medium range NOE peaks was initially generated and manually edited by visual inspection of the simultaneous NOESY (100 ms mixing time) and 13C-edited aromatic NOESY (100 ms mixing time) spectra. NOEs were assigned using matching tolerances of 0.030, 0.025 and 0.40 ppm for indirect 1H, direct 1H and heavy atom 13C/15N, respectively. Subsequent manual peak picking was used to identify remaining, primarily long-range NOEs. In addition, backbone dihedral angle constraints were derived from chemical shifts (Shen, Y. et al. 2009 J Biomol NMR 44:213) for residues located in well-defined secondary structure elements. The initial structure was refined in explicit solvent using standard methods (Linge, J. P. et al. 2003 Proteins-Structure Function and Bioinformatics 50:496).

B1: PIP-72Aa (Pseudomonas Insecticidal Protein-72Aa) polypeptide of SEQ ID NO: 2 (other)
chain: MGITVTNNSSNPIEVAINHWGSDGDTSFFSVGNGKQETWDRSDSRGFVLSLKKNGAQHPYYVQASSKIEVDNNAVKDQGRLIEPLS
modifications: uniformly 15N,13C isotope labeled
notes: Insecticidal protein from Pseudomonas chlororaphis strain SS143D5; For NMR it was expressed in E. coli with an N-terminal His tag, which was removed by proteolysis, so untagged PIP-72Aa was used; also called IPD072Aa
As for B1, the binding result was “binds”.
